In PMC10166511, “Fast cross-linking by DOPA2 promotes the capturing of a stereospecific protein complex over nonspecific encounter complexes” (Biophysics Reports, 2022):

Target: T1, EIIA^Glc (UniProt P69783 2-169)
T1 construct: EIIA^Glc, functional subunit of Enzyme II of the bacterial glucose phosphotransferase system; Species is stated only for enzyme I (E. coli); source: purified as previously described (Garrett et al. 1999; Xing et al. 2014)
Test: SPR + ELISA; no accurate KD obtained; format and conditions not told
Conditions: both partners purified

T1 sequence (P69783 2-169): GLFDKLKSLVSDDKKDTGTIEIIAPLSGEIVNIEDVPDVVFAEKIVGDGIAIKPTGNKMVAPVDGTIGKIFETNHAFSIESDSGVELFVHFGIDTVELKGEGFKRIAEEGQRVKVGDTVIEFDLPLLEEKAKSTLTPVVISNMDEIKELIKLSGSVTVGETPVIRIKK

B1: EIIB^Glc (domain or fragment)
chain: EDATEDAKATGTSEMAPALVAAFGGKENITNLDACITRLRVSVADVSKVDQAGLKKLGAAGVVVAGSGVQAIFGTKSDNLKTEMDEYIRN
notes: EIIB^Glc, functional subunit of Enzyme II of the bacterial glucose phosphotransferase system; Species is stated only for enzyme I (E. coli); source: purified as previously described (Garrett et al. 1999; Xing et al. 2014)
Work on B1 yielded a Kd greater than 10 µM.
